In the supplement of paper PMC7877785:
± gives the uncertainty stated by the source.

Experiment: self-splicing fitness, log relative to wild type (ln ratio); higher = more splicing; Tetrahymena group I intron in knt gene, E. coli kanamycin selection, DiMSum; sequences stand for … in CUCUCU…GGAGGGAAAAGUUAUCAGGCAUGCACCUGGUAGCUAGUCUUUAAACCAAUAGAUUGCAUCGGUUUAAAAGGCAAGACCGUCAAAUUGCGGGAAAGGGGUCAACAGCCGUUCAGUACCAAGUCUCAGGGGAAACUUUGAGAUGGCCUUGCAAAGGGUAUGGUAAUAAGCUGACGGACAUGGUCCUAACCACGCAGCCAAGUCCUAAGUCAACAGAUCUUCUGUUGAUAUGGAUGCAGUUCACAGACUAAAUGUCGGUCGGGGAAGAUGUAUUCUUCUCAUAAGAUAUAGUCGGACCUCUCCUUAAUGGGAGCUAGCGGAUGAAGUGAUGCAACACUGGAGCCGCUGGGAACUAAUUUGUAUGCGAAAGUAUAUUGAUUAGUUUUGGAGUACUCGUGGUCG
Procedure, shortened: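 DiMSum derived fitness as the error-weighted combination of fold changes across replicates, kanamycin versus no kanamycin, normalised to wild type. E. coli BL21(DE3) held the library, which randomised all eight P1ex-region intron nucleotides within the knt kanamycin-resistance gene on pET-22b(+). Six replicate transformations grew overnight at 37°C or 30°C on LB agar with or without 25 μg/mL kanamycin, also containing 100 μg/mL carbenicillin, 50 μM IPTG and 0.2% rhamnose, and pooled colonies were amplicon-sequenced on an Illumina HiSeq 2500.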

Sequence | self-splicing fitness (ln) (30 °C) | self-splicing fitness (ln) (37 °C)
ACUGAGCAAUAUUACGUUGU | -3.71 ± 0.26 | -1.53 ± 0.14
UGAGAGCAAUAUUACGCCUA | -1.58 ± 0.22 | -0.073 ± 0.21
AUUAAGCAAUAUUACGUGCA | -1.03 ± 0.089 | -0.282 ± 0.11
UUUGAGCAAUAUUACGAACG | – | -0.865 ± 0.26
GAUUAGCAAUAUUACGGCCG | -1.01 ± 0.13 | -1.01 ± 0.19
CGCGAGCAAUAUUACGUGCA | -2.08 ± 0.099 | -0.511 ± 0.095
GACUAGCAAUAUUACGCCAC | – | -1.76 ± 0.41
CUCUAGCAAUAUUACGCGAC | -3.14 ± 0.24 | -2.75 ± 0.3
ACGUAGCAAUAUUACGGGCA | -0.955 ± 0.099 | -0.418 ± 0.12
CCACAGCAAUAUUACGCUGU | -4.34 ± 0.18 | -3.31 ± 0.27
GUCAAGCAAUAUUACGUCUG | -3.64 ± 0.28 | -0.0416 ± 0.085
UGAAAGCAAUAUUACGACCA | -0.558 ± 0.11 | 0.362 ± 0.14
AUUGAGCAAUAUUACGUAUG | -3.63 ± 0.46 | –
GCUGAGCAAUAUUACGAAUG | – | -1.4 ± 0.37
AACAAGCAAUAUUACGGCGC | -0.737 ± 0.1 | 0.0559 ± 0.12
AACAAGCAAUAUUACGUGAU | -2.2 ± 0.069 | -1.46 ± 0.08
AAUAAGCAAUAUUACGCAGG | -1.85 ± 0.14 | -2.12 ± 0.15
UCGCAGCAAUAUUACGCUCC | -2.9 ± 0.46 | –
UCCAAGCAAUAUUACGCAGA | -1.58 ± 0.12 | -0.571 ± 0.088
GAUUAGCAAUAUUACGGACC | -0.347 ± 0.18 | -0.379 ± 0.16
GAGUAGCAAUAUUACGCGGC | – | -1.74 ± 0.45
UGUGAGCAAUAUUACGAGUG | -1.4 ± 0.071 | -1.16 ± 0.08
GCACAGCAAUAUUACGGAGG | -2 ± 0.099 | -0.502 ± 0.11
GGUCAGCAAUAUUACGCCUC | -0.643 ± 0.12 | 0.0345 ± 0.14
CUGAAGCAAUAUUACGCGUG | -0.382 ± 0.041 | 0.0264 ± 0.063
GAGGAGCAAUAUUACGCAGU | -2.89 ± 0.28 | -3.66 ± 0.42

Sequence | self-splicing fitness (ln) (30 °C) | self-splicing fitness (ln) (37 °C)
UCCAAGCAAUAUUACGGCGA | 0.214 ± 0.078 | 0.225 ± 0.086
ACGGAGCAAUAUUACGUGAC | -2.68 ± 0.28 | -2.16 ± 0.42
ACUAAGCAAUAUUACGGAUU | -2.79 ± 0.14 | -1.1 ± 0.11
GACAAGCAAUAUUACGUACG | -1.82 ± 0.077 | -0.508 ± 0.091
ACGUAGCAAUAUUACGUUUC | -4.47 ± 0.25 | -2.87 ± 0.19
GUUGAGCAAUAUUACGUGAA | – | -1.76 ± 0.22
AACUAGCAAUAUUACGUUAU | -2.63 ± 0.11 | -1.75 ± 0.12
AGACAGCAAUAUUACGCUUA | -0.813 ± 0.086 | -0.083 ± 0.12
CGUAAGCAAUAUUACGGGUA | -2.63 ± 0.15 | -2.48 ± 0.21
GGGGAGCAAUAUUACGCUAG | -2.63 ± 0.27 | –
GUUAAGCAAUAUUACGCGUA | -1.2 ± 0.17 | -0.453 ± 0.25
GCCCAGCAAUAUUACGAGGG | -4 ± 0.18 | -2.74 ± 0.21
GAAUAGCAAUAUUACGACUG | 0.089 ± 0.15 | -1.43 ± 0.17
UAACAGCAAUAUUACGGGCA | -0.826 ± 0.085 | -0.324 ± 0.078
GAUUAGCAAUAUUACGUAUA | -2.65 ± 0.22 | -0.643 ± 0.19
AUGGAGCAAUAUUACGUCUG | -2.81 ± 0.24 | -2.04 ± 0.25
AAUUAGCAAUAUUACGAGCA | -1.1 ± 0.12 | -0.758 ± 0.1
GCAUAGCAAUAUUACGACUC | -0.352 ± 0.16 | 0.841 ± 0.13
UUUCAGCAAUAUUACGCACG | -1.05 ± 0.12 | -0.0521 ± 0.13
GUGCAGCAAUAUUACGCCAC | – | -1.95 ± 0.47
GAAAAGCAAUAUUACGUGGC | -3.57 ± 0.2 | -2.06 ± 0.16
AACUAGCAAUAUUACGGUAU | -1.31 ± 0.072 | -0.479 ± 0.092
UAGCAGCAAUAUUACGACUG | -0.817 ± 0.14 | -0.556 ± 0.18
CCCGAGCAAUAUUACGCACA | -2.87 ± 0.27 | -1.68 ± 0.32
AUAUAGCAAUAUUACGGGCU | -2.22 ± 0.17 | -1.6 ± 0.21
